# Assay results reported in patent US8124586 (DYAX, dated 2012).
# B1: PEP-1 KI polypeptide (designed binder)
# chain: EAMHSFCAFKADDGPCRAAHPRWFFNIFTRQCEEFIYGGCEGNQNRFESLEECKKMCTRD
# notes: Non-naturally occurring Kunitz domain polypeptide from a phage display library; Molecular weight 7,054 Daltons
# Tests used:
# human plasma kallikrein [1] = target: T1, human plasma kallikrein (human, UniProt P03952 20-638); assay: protease inhibition, Ki,app
# T1 construct: The active enzyme comes from the zymogen prekallikrein
# T1 sequence (P03952 20-638 limits assumed): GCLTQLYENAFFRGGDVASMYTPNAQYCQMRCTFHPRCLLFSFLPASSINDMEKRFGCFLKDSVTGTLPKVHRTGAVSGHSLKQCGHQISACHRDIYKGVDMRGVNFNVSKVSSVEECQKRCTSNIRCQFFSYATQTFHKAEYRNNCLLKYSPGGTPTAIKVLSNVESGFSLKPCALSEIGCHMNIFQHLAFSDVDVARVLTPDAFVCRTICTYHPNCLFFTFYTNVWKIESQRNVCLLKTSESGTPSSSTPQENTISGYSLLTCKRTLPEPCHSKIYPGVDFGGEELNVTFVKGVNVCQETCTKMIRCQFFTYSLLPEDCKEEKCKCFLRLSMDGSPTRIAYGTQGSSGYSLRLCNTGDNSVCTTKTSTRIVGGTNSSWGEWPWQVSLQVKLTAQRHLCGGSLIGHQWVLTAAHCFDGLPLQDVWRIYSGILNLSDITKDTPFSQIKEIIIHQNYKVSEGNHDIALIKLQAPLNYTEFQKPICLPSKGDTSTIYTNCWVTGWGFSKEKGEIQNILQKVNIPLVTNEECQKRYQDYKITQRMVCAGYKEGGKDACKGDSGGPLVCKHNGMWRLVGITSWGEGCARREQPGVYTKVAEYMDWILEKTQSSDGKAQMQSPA
# human plasma factor XIa = human plasma factor XIa (human, UniProt P03951 19-625); assay: protease inhibition, Ki,app
# [2] = target: porcine pancreatic kallikrein (porcine, UniProt P00752 8-246); assay: protease inhibition, Ki,app
# Sequence of porcine pancreatic kallikrein (P00752 8-246): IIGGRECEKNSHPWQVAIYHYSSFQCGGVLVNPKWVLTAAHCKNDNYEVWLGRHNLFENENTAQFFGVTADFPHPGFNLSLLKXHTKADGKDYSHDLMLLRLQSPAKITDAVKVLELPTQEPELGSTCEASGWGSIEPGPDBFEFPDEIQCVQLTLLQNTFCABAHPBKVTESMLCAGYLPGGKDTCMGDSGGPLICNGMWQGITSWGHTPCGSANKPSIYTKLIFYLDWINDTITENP
# human plasmin = human plasmin (human, UniProt P00747 97-810, limits assumed); assay: protease inhibition, Ki,app
# Sequence of human plasmin (P00747 97-810 limits assumed): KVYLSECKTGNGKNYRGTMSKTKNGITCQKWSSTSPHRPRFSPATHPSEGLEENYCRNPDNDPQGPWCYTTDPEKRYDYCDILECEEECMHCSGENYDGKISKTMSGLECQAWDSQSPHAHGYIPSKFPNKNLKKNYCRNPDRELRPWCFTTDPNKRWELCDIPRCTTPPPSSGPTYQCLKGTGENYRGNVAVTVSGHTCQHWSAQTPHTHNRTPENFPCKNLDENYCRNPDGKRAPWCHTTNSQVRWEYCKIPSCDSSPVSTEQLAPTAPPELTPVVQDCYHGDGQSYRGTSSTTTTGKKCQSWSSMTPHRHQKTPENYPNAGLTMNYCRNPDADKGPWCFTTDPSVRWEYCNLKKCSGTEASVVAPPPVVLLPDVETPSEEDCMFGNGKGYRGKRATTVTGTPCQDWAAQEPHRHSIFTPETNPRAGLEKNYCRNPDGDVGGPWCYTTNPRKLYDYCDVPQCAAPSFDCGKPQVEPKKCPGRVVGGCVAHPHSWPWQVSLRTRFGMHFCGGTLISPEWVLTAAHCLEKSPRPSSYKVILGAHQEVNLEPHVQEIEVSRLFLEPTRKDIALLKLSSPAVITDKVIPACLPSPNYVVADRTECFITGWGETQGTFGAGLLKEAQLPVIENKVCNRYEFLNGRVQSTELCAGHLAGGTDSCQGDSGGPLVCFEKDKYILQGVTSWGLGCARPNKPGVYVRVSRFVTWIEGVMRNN
# human plasma kallikrein [3] = target: T1, human plasma kallikrein; assay: ratio of Ki,app values, reference aprotinin
binder,measurement,setting,value
B1,Ki,human plasma kallikrein [1],0.044 nM
same,Ki,human plasma factor XIa,10 nM
same,Ki,[2],27000 nM
same,Ki,human plasmin,140 nM
same,"fold higher affinity (Ki,app) than aprotinin",human plasma kallikrein [3],1000 fold
